Measured values taken from the supplement of paper PMC11316812.
± gives the standard deviation of the averaged measurements.

What was measured:
MCF7 = experiment: percentage of EdU-negative (G0-arrested) nuclei per well, 72 h; higher = more G0 arrest; conditions: reference: sequence is the full UniProt precursor, the tested protein was the secreted form or ectodomain
hTERT-HMEC = experiment: as above; conditions: reference: sequence is the full UniProt precursor, the tested protein was the secreted form or ectodomain
[1] = protein concentration 0.0257143 µM
[2] = protein concentration 0.257143 µM
[3] = protein concentration 0.03125 µM
[4] = protein concentration 0.3125 µM
[5] = protein concentration 0.0225 µM
[6] = protein concentration 0.01775 µM
[7] = protein concentration 0.1775 µM
[8] = protein concentration 0.0075 µM
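Further: secreted proteins added to cultured cells, EdU pulse at the end, nuclei found by Hoechst imaging, EdU status from nuclear versus surrounding ring intensity ratio, PBS as neutral control.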

Sequence	percentage of EdU-negative (MCF7; [5])	percentage of EdU-negative (MCF7; protein concentration 0.225 µM)	percentage of EdU-negative (hTERT-HMEC; [5])	percentage of EdU-negative (hTERT-HMEC; protein concentration 0.225 µM)	other results
MRTQSLLLLGALLAVGSQLPAVFGRKKGEKSGGCPPDDGPCLLSVPDQCVEDSQCPLTRKCCYRACFRQCVPRVSVKLGSCPEDQLRCLSPMNHLCHKDSDCSGKKRCCHSACGRDCRDPARGTAPGCPGQANSDLGSVALHLSWGPTERVHDGRPGALPAGQHYLYQRWFQPSDNHWPADTSLQPIHPWFLLLGVKVHSLSSEEGLCITPVLCTTAIRASHPS [Q8TCV5]	–	–	–	–	percentage of EdU-negative (MCF7; [1]): 23.5 ± 0.78%; percentage of EdU-negative (MCF7; [2]): 28.7 ± 0.3%; percentage of EdU-negative (hTERT-HMEC; [1]): 5.766 ± 0.04%; percentage of EdU-negative (hTERT-HMEC; [2]): 5.25 ± 1.3%
MAPARAGFCPLLLLLLLGLWVAEIPVSAKPKGMTSSQWFKIQHMQPSPQACNSAMKNINKHTKRCKDLNTFLHEPFSSVAATCQTPKIACKNGDKNCHQSHGAVSLTMCKLTSGKHPNCRYKEKRQNKSYVVACKPPQKKDSQQFHLVPVHLDRVL [Q9H1E1]	–	–	–	–	percentage of EdU-negative (MCF7; [3]): 24.6 ± 0.7%; percentage of EdU-negative (MCF7; [4]): 26 ± 3.1%; percentage of EdU-negative (hTERT-HMEC; [3]): 4.51 ± 0.69%; percentage of EdU-negative (hTERT-HMEC; [4]): 6.66 ± 0.32%
MDLSRPRWSLWRRVFLMASLLACGICQASGQIFITQTLGIKGYRTVVALDKVPEDVQEYSWYWGANDSAGNMIISHKPPSAQQPGPMYTGRERVNREGSLLIRPTALNDTGNYTVRVVAGNETQRATGWLEVLELGSNLGISVNASSLVENMDSVAADCLTNVTNITWYVNDVPTSSSDRMTISPDGKTLVILRVSRYDRTIQCMIESFPEIFQRSERISLTVAYGPDYVLLRSNPDDFNGIVTAEIGSQVEMECICYSFLDLKYHWIHNGSLLNFSDAKMNLSSLAWEQMGRYRCTVENPVTQLIMYMDVRIQAPHEDLTCCPQRFLHLRIHGDVPHHADSAGWRLHLWSPDPCSDQPLLNQDKSGSMSVHPRPEDKTRRASR [A8MTB9]	28.6 ± 0.05%	27.4 ± 0.32%	4.89 ± 0.18%	4.46 ± 0.032%	–
MKVSVAALSCLMLVTALGSQARVTKDAETEFMMSKLPLENPVLLDRFHATSADCCISYTPRSIPCSLLESYFETNSECSKPGVIFLTKKGRRFCANPSDKQVQVCMRMLKLDTRIKTRKN	22.9 ± 1.3%	24.7 ± 1.1%	4.81 ± 0.43%	5.12 ± 0.82%	–
MRRRRAGGRTMVERASKFVLVVAGSVCFMLILYQYAGPGLSLGAPGGRAPPDDLDLFPTPDPHYEKKYYFPVRELERSLRFDMKGDDVIVFLHIQKTGGTTFGRHLVQNVRLEVPCDCRPGQKKCTCYRPNRRETWLFSRFSTGWSCGLHADWTELTNCVPGVLDRRDSAALRTPRKFYYITLLRDPVSRYLSEWRHVQRGATWKTSLHMCDGRTPTPEELPPCYEGTDWSGCTLQEFMDCPYNLANNRQVRMLADLSLVGCYNLSFIPEGKRAQLLLESAKKNLRGMAFFGLTEFQRKTQYLFERTFNLKFIRPFMQYNSTRAGGVEVDEDTIRRIEELNDLDMQLYDYAKDLFQQRYQYKRQLERREQRLRSREERLLHRAKEALPREDADEPGRVPTEDYMSHIIEKW	–	–	–	–	percentage of EdU-negative (MCF7; protein concentration 0.01 µM): 25.6 ± 0.82%; percentage of EdU-negative (MCF7; protein concentration 0.1 µM): 28.9 ± 4%; percentage of EdU-negative (hTERT-HMEC; protein concentration 0.01 µM): 5.25 ± 0.85%; percentage of EdU-negative (hTERT-HMEC; protein concentration 0.1 µM): 31.7 ± 5.8%
MASWLRRKLRGKRRPVIAFCLLMILSAMAVTRFPPQRPSAGPDPGPMEPQGVTGAPATHIRQALSSSRRQRARNMGFWRSRALPRNSILVCAEEQGHRARVDRSRESPGGDLRHPGRVRRDITLSGHPRLSTQHVVLLREDEVGDPGTKDLGHPQHGSPIQETQSEVVTLVSPLPGSDMAALPAWRATSGLTLWPHTAEGRDLLGAENRALTGGQQAEDPTLASGAHQWPGSVEKLQGSVWCDAETLLSSSRTGGQAPPWLTDHDVQMLRLLAQGEVVDKARVPAHGQVLQVGFSTEAALQDLSSPRLSQLCSQGLCGLIKRPGDLPEVLSFHVDRVLGLRRSLPAVARRFHSPLLPYRYTDGGARPVIWWAPDVQHLSDPDEDQNSLALGWLQYQALLAHSCNWPGQAPCPGIHHTEWARLALFDFLLQVHDRLDRYCCGFEPEPSDPCVEERLREKCQNPAELRLVHILVRSSDPSHLVYIDNAGNLQHPEDKLNFRLLEGIDGFPESAVKVLASGCLQNMLLKSLQMDPVFWESQGGAQGLKQVLQTLEQRGQVLLGHIQKHNLTLFRDEDP [Q9UFP1]	–	–	–	–	percentage of EdU-negative (MCF7; [6]): 25.4 ± 2.1%; percentage of EdU-negative (MCF7; [7]): 24.5 ± 4.3%; percentage of EdU-negative (hTERT-HMEC; [6]): 4.53 ± 0.69%; percentage of EdU-negative (hTERT-HMEC; [7]): 4.83 ± 0.99%
MRRASRDYTKYLRGSEEMGGGPGAPHEGPLHAPPPPAPHQPPAASRSMFVALLGLGLGQVVCSVALFFYFRAQMDPNRISEDGTHCIYRILRLHENADFQDTTLESQDTKLIPDSCRRIKQAFQGAVQKELQHIVGSQHIRAEKAMVDGSWLDLAKRSKLEAQPFAHLTINATDIPSGSHKVSLSSWYHDRGWAKISNMTFSNGKLIVNQDGFYYLYANICFRHHETSGDLATEYLQLMVYVTKTSIKIPSSHTLMKGGSTKYWSGNSEFHFYSINVGGFFKLRSGEEISIEVSNPSLLDPDQDATYFGAFKVRDID	28.6 ± 1.4%	25.6 ± 1.6%	4.57 ± 0.17%	5.25 ± 0.66%	–
MGLQACLLGLFALILSGKCSYSPEPDQRRTLPPGWVSLGRADPEEELSLTFALRQQNVERLSELVQAVSDPSSPQYGKYLTLENVADLVRPSPLTLHTVQKWLLAAGAQKCHSVITQDFLTCWLSIRQAELLLPGAEFHHYVGGPTETHVVRSPHPYQLPQALAPHVDFVGGLHRFPPTSSLRQRPEPQVTGTVGLHLGVTPSVIRKRYNLTSQDVGSGTSNNSQACAQFLEQYFHDSDLAQFMRLFGGNFAHQASVARVVGQQGRGRAGIEASLDVQYLMSAGANISTWVYSSPGRHEGQEPFLQWLMLLSNESALPHVHTVSYGDDEDSLSSAYIQRVNTELMKAAARGLTLLFASGDSGAGCWSVSGRHQFRPTFPASSPYVTTVGGTSFQEPFLITNEIVDYISGGGFSNVFPRPSYQEEAVTKFLSSSPHLPPSSYFNASGRAYPDVAALSDGYWVVSNRVPIPWVSGTSASTPVFGGILSLINEHRILSGRPPLGFLNPRLYQQHGAGLFDVTRGCHESCLDEEVEGQGFCSGPGWDPVTGWGTPNFPALLKTLLNP	25.3 ± 1.4%	27.9 ± 4.2%	5.11 ± 0.24%	10.72 ± 0.011%	–
MRRMWATQGLAVALALSVLPGSRALRPGDCEVCISYLGRFYQDLKDRDVTFSPATIENELIKFCREARGKENRLCYYIGATDDAATKIINEVSKPLAHHIPVEKICEKLKKKDSQICELKYDKQIDLSTVDLKKLRVKELKKILDDWGETCKGCAEKSDYIRKINELMPKYAPKAASARTDL	–	–	–	–	percentage of EdU-negative (MCF7; [3]): 25.9 ± 1.2%; percentage of EdU-negative (MCF7; [4]): 24.8 ± 3.6%; percentage of EdU-negative (hTERT-HMEC; [3]): 5.21 ± 0.51%; percentage of EdU-negative (hTERT-HMEC; [4]): 6.6 ± 0.2%
MALRRPPRLRLCARLPDFFLLLLFRGCLIGAVNLKSSNRTPVVQEFESVELSCIITDSQTSDPRIEWKKIQDEQTTYVFFDNKIQGDLAGRAEILGKTSLKIWNVTRRDSALYRCEVVARNDRKEIDEIVIELTVQVKPVTPVCRVPKAVPVGKMATLHCQESEGHPRPHYSWYRNDVPLPTDSRANPRFRNSSFHLNSETGTLVFTAVHKDDSGQYYCIASNDAGSARCEEQEMEVYDLNIGGIIGGVLVVLAVLALITLGICCAYRRGYFINNKQDGESYKNPGKPDGVNYIRTDEEGDFRHKSSFVI [Q9BX67]	21.3 ± 0.85%	24.5 ± 2.1%	4.86 ± 0.27%	5.13 ± 0.74%	–
MASRWAVQLLLVAAWSMGCGEALKCYTCKEPMTSASCRTITRCKPEDTACMTTLVTVEAEYPFNQSPVVTRSCSSSCVATDPDSIGAAHLIFCCFRDLCNSEL	23.5 ± 2.8%	26.6 ± 1.9%	5.43 ± 0.94%	5.61 ± 1%	–
MYLVAGDRGLAGCGHLLVSLLGLLLLLARSGTRALVCLPCDESKCEEPRNCPGSIVQGVCGCCYTCASQRNESCGGTFGIYGTCDRGLRCVIRPPLNGDSLTEYEAGVCEDENWTDDQLLGFKPCNENLIAGCNIINGKCECNTIRTCSNPFEFPSQDMCLSALKRIEEEKPDCSKARCEVQFSPRCPEDSVLIEGYAPPGECCPLPSRCVCNPAGCLRKVCQPGNLNILVSKASGKPGECCDLYECKPVFGVDCRTVECPPVQQTACPPDSYETQVRLTADGCCTLPTRCECLSGLCGFPVCEVGSTPRIVSRGDGTPGKCCDVFECVNDTKPACVFNNVEYYDGDMFRMDNCRFCRCQGGVAICFTAQCGEINCERYYVPEGECCPVCEDPVYPFNNPAGCYANGLILAHGDRWREDDCTFCQCVNGERHCVATVCGQTCTNPVKVPGECCPVCEEPTIITVDPPACGELSNCTLTGKDCINGFKRDHNGCRTCQCINTEELCSERKQGCTLNCPFGFLTDAQNCEICECRPRPKKCRPIICDKYCPLGLLKNKHGCDICRCKKCPELSCSKICPLGFQQDSHGCLICKCREASASAGPPILSGTCLTVDGHHHKNEESWHDGCRECYCLNGREMCALITCPVPACGNPTIHPGQCCPSCADDFVVQKPELSTPSICHAPGGEYFVEGETWNIDSCTQCTCHSGRVLCETEVCPPLLCQNPSRTQDSCCPQCTDQPFRPSLSRNNSVPNYCKNDEGDIFLAAESWKPDVCTSCICIDSVISCFSESCPSVSCERPVLRKGQCCPYCIEDTIPKKVVCHFSGKAYADEERWDLDSCTHCYCLQGQTLCSTVSCPPLPCVEPINVEGSCCPMCPEMYVPEPTNIPIEKTNHRGEVDLEVPLWPTPSENDIVHLPRDMGHLQVDYRDNRLHPSEDSSLDSIASVVVPIIICLSIIIAFLFINQKKQWIPLLCWYRTPTKPSSLNNQLVSVDCKKGTRVQVDSSQRMLRIAEPDARFSGFYSMQKQNHLQADNFYQTV [Q9NZV1]	–	–	–	–	percentage of EdU-negative (MCF7; [8]): 24.3 ± 2.8%; percentage of EdU-negative (MCF7; protein concentration 0.075 µM): 25.9 ± 0.87%; percentage of EdU-negative (hTERT-HMEC; [8]): 4.66 ± 0.59%; percentage of EdU-negative (hTERT-HMEC; protein concentration 0.075 µM): 5.81 ± 1.6%
